# Laboratory results from publication PMC2964404.
# Molecular target: Staphylococcus aureus enterotoxin C3, wild type (Staphylococcus aureus) (UniProt P0A0L5)
# Experiment: ITC
substance,measurement,value
variable domain of the murine T cell receptor (TCR) β chain 8.2 (domain or fragment),dH,-4.88 kcal/mol
